Experimental data reported in the RNAGym collection of RNA variant scans (doi:10.1073/pnas.2313332121).

B1: TPR t1 (parent)
chain: GACCAAUCUGCCCUCAGAGCUCGAGAACAUCUUCGGAUGCAGAGGAGGCAGGCUUCGGUGGCGCGAUAGCGCCAACGUCCUCAACCUCCAAUGCAUCCCACCACAUGAUGAUGCCUGAAGAGCCUUGGUUUUUUG

Variants of: B1
Test: polymerase ribozyme fitness, log enrichment relative to wild type (log ratio); higher = more active; in vitro selection for triplet polymerase activity
In short: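 Only genotypes with ≥10 input reads and ≥1 read per output were kept after Illumina sequencing of input and output libraries. These libraries were PCR-built, transcribed mutants of each subunit of a heterodimeric triplet polymerase ribozyme, each put through one triplicate in vitro selection round with frozen incubation at −7 °C, gel excision of extended constructs, streptavidin-bead capture and RT-PCR. Fitness is a logarithmic ratio of genotype enrichment to wild-type enrichment, from inverse-variance-weighted replicate averages, with the logarithm in base 2.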

Variant	polymerase ribozyme fitness (log ratio)
U7G C101G A121C	-0.603
G71U G135U	-1.02
G60U A90C	-1.12
C72G C80A U81G C86A	-6.59
C11G U78C C114A G120C	-0.166
C49U U132C	-0.889
U7G G42C G71A C89G	-2.37
A27U C70A	-4.74
U7C C64U A100U	-0.384
C114U A119C	-6.28
U14A A90G	-2.78
G52A G71C G93C	-5.59
C12U G36A C62G C73A	-6.24
A6C G36U U96G G120C G122A	-0.981
C11A A41U G47A U109A	-5.79
U9G C11A G39C C72G G77C A118U	-2.83
C22U A24G G47A U54A G57A G61A U81A	-6.51
C15G U38C C124G	0.313
U54A C70G C115U	-5.02
C56U C89U U116C G127A G135U	-3.61
G19U A37C C56U A84C	-3.87
C70U U96C C97U C104A	-5.19
A5U C40U G42C	-2.03
G10U A26U G42A U106A U125G	-4.36

Variant	polymerase ribozyme fitness (log ratio)
G63C A103G	-5.66
G48C C123G	0.677
G51A C123A	-1.89
U14C C104U	-0.978
C86A	-0.461
U21A C49U G63U	-3.27
G69U C85G	-0.537
A29U C124U U131A	-0.63
C88G G117A G120C	-4.17
G10A C12A A29G G52U C56A G57C	-2.57
C56G U81G	-2.07
G10A C13A C22A A46G C49A G122A	-6.21
A5U U21C C72G C97U	-1.7
C13U U112A U126G	0.677
G71C C94U	-3.04
C13U U54A G61A	-0.0236
C20U A27G	-3.07
G52A C53U	-0.621
G36U G42A	-3.47
G39A C73A	-0.374
G48A G61U U112A U125G G127C	-0.619
G42U A50C U92C	-2.73
A95C C123G U132A	-0.459
C70G C104G G110A	-6.86

Variant	polymerase ribozyme fitness (log ratio)
G10U C15G U21A A90G G93U G120C G135U	-3.07
C13U A41G G60A C94U C115U	-1.95
G61A A83C	-0.418
C79U A95C G120A	-0.000389
U9A G36U	0.766
G63C G93A U112G	-0.619
U38G G52A G61A U112G C124U U129G	-1.92
C3U C53G C89G	-1.41
A24U C123G	-3.41
C34U G113A C124A	-5.17
C76U A121U	2.22
U9G C101U	0.459
A5G C13A C53U U59G	-1.69
A41G C53U	-0.653
C11G A27U C49A G61A A84G	-4.25
G10U C20A C56U	-2.94
G10U C11G U14A A37G C76U G93C C102A	-5.35
C11U C13A C22U U55G	-4.69
C8A C86A	0.557
G69A G113C	-3.4
G69U G107C	-4.24
C8U U38C C115A	0.431
G25A C123A	-6.12
C11A C12G A27U G63U G77A	-5.74

Variant	polymerase ribozyme fitness (log ratio)
G63U U130A	-1.46
U78C U129A	-1.01
G71U C72G C123A	-2.68
C88G G127C	-2.07
C11U C123A	0.93
U59A C82U A111G	-0.386
A16U C53G G93C C123A	-1.64
C34A A37U G48U C64G A68G C94G G120U	-7.45
A50C C53U A84G	-0.439
A46C C72A	0.257
G71U	-0.118
C12A C40G	-1.7
C12A G23A G77U A119G	-5.67
U7A C79G	-1.03
C20A C79A U131A	-3.6
C88A U116G	-2.94
G57A C82A	-0.596
C8U C70G U125A U130G	-3.05
C3U C72U C76U C85U U116G C124U U129C	-6.12
G23U U112G	-5.53
C101U G113A	-1.2
A16U G23A G60A A111G G122U	-7.12
C8A A16C G39U C102A	-4.53
A18G A43C C53A G63U	-5.8

Variant	polymerase ribozyme fitness (log ratio)
C56G C124G	0.656
C13U C73G G117A C124A	0.844
G61C C64A C94G G113C C124A	-6.83
G17C A84U	-4.87
G48A U54C U55A C94A A118U	-1.02
C11U C53A	-0.286
A24U G47A G110A C114A	-6.75
G52U U67G C101U G120C	-6.94
G63C A111G U125C	-1.75
A6U G44U U87A A91C C97U	-1.94
A6C C13G G69A	-3.82
A41U C82U A103U G110C G122A	-7.14
C73G A121C G122A	0.495
C80G U106A G122A	-6.86
U9G G23A	-5.2
C13A G36C C53G A95C	-4.38
A6C C8A U32C A84U A90G G110C C114U	-5.68
A29C G93A	-3.03
G10U A37U C102G C115A	-6.5
A29G G117A	-2.22
C11U C22G A26C C64U	-4.03
G45C A75G U96A G113C	-2.91
A84C C85G U133C	-0.825
G69A C80U	-2.58

Variant	polymerase ribozyme fitness (log ratio)
A6U C56G C76U C86A A90G	-1.7
C22A G39U	-5.33
A24G C28G G48U C64U	-6.05
A5U A16C G57C G69A G93A	-6.66
U33A U112C G122C	-2.34
A74U G120A	0.0292
G19C C89A U125G	-2.33
A2G C8U	0.157
A50C G61C	-3.35
A37U C82G G110C	-6.53
U116C A121G U129C	-3.73
G48C C49A U129A	-3.14
U59G C101G C114U	-2.59
G10A U38G G48C C79A	-4.53
C79U U130A	-1.2
G52C G60A U81A A83U	-5.15
A27U G57U C73G U78C U96A A111U	-5.99
C13U G52U C85U	-2.32
U7G U106C	1.03
U21C G52C G61A C82A	-0.816
A37U C70U C79U	-0.766
G52A C85G	-1.03
C76G C88A C101A U130A	-1.71
G52U A111U	-3.93

Variant	polymerase ribozyme fitness (log ratio)
U7G C20U A27U G47C G113A	-4.53
C62G G120C	-0.544
C73G C82A A90U C123G	-0.559
U87C G113A	-0.807
C104U A105C U131C	-2.36
G44C C62A U132C	-2.12
A37U G60U	-1.39
C34A G71A	-3.26
G17U G117A U129A	-4.12
G42A U59A	-1.76
A6C U59G C86U G113U	-3.51
C40U G45A U78G U81A	-2.5
C8G C11U A121C U130A	1.01
G19A A121C	-1.3
U7C G10C G60C C102U U112C	-2.68
G19U G44U	-4.75
C13A C123A	-0.742
A50G C104A	-1.49
G45U G117U	-3.43
A18C C89G	-2.48
U55G C56U	-0.601
G61C A105C	-4.76
C13A U112A G120C	-0.261
